Values quoted from earlier work as cited in paper PMC7023894.

Molecular target: Ezrin FERM (Homo sapiens) (UniProt P15311)
UniProt P15311, sequence (P15311 1-299): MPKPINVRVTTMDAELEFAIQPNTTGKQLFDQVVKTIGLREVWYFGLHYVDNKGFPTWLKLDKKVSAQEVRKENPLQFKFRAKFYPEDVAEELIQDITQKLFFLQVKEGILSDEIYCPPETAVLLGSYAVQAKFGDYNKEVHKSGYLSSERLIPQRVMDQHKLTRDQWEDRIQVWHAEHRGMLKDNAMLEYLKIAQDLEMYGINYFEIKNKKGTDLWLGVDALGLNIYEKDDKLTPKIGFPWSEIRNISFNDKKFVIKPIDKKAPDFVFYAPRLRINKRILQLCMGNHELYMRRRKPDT

Kd: 73.3 nM
Substance: Transgelin-2 CLR region (from UniProt P37802)
